According to patent US12377158:
Positions of bridges follow the written chain, without caps; N, C: chain ends. No end group written: not given here.

B1: alpha Klotho with the albumin binding construct … (SEQ ID NO: 4) attached to the terminal end (peptide, not shown: small tags and cut ends)
peptide: GGSGGSGGSGGRLIEDICLPRWGCLWEDD
modifications: disulfide 18-24 (inferred); also: fused to alpha Klotho, terminus not given here

Key:
[1] = molecular target: Native human Albumin Protein (human) (UniProt P02768); test: SPR (Nicoya OpenSPR), human albumin immobilised on COOH chip, mouse klotho as analyte at 0-40 nM
canine albumins (canine) = canine albumins (canine) (UniProt P49822); test: method not stated
UniProt P49822, sequence (P49822 25-608 limits assumed): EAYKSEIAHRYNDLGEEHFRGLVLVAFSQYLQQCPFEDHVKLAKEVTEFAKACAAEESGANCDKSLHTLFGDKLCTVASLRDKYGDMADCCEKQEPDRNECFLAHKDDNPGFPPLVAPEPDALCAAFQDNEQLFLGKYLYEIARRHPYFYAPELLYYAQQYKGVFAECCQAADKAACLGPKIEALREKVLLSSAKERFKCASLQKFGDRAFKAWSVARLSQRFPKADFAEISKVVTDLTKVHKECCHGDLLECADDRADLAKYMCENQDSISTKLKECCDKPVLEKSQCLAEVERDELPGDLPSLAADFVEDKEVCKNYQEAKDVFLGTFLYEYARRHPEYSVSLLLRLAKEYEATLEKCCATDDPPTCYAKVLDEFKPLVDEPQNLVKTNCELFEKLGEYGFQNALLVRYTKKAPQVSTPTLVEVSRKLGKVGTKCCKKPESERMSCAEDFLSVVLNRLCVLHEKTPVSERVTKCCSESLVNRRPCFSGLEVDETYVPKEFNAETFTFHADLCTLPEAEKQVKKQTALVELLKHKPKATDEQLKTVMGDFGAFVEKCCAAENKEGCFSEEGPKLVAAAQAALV

Molecule	Kd [1] [nM]	koff [1] [s⁻¹]	kon [1] [M⁻¹ s⁻¹]	Kd (canine albumins (canine)) [nM]
Mouse klotho protein (from UniProt O35082 35-982)	7.94	0.00681	858000	–
B1	–	–	–	< 19
